We go through three molecules from article PMC3936728.

One data set addresses T1, MepR WT (Staphylococcus aureus, UniProt Q5Y812 1-139).
T1 sequence: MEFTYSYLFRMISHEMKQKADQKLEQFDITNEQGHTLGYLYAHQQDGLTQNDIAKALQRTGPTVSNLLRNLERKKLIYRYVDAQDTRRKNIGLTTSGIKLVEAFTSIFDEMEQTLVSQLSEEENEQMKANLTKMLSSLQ
The data set can be described thus: ITC.

The target in the next data set is T2, MepR (crystallization) (Staphylococcus aureus, UniProt Q5Y812 1-139).
T2 sequence: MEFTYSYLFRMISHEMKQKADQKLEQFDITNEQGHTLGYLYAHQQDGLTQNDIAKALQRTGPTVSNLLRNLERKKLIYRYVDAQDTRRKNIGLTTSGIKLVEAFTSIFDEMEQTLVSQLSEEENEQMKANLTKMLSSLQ
As to the kind of experiment: crystal structure.

B1: 14 bp mepR site (dsDNA)
DNA 1: GTTAGACATCTAAC
DNA 2: GTTAGATGTCTAAC
As to B1, the binding result with MepR WT was “no binding”.

B2: 24 bp palindromic mepR operator (dsDNA)
DNA 1: ATTTAGTTAGATATCTAACTAAAT
DNA 2: ATTTAGTTAGATATCTAACTAAAT
Take B2: in the data set with MepR (crystallization), the binding result was “binds”.

B3: 27 bp mepR, scrambled recognition helix region (dsDNA)
DNA 1: TATTTACTATGTGTATCTAGGAAATGG
DNA 2: CCATTTCCTAGATACACATAGTAAATA
As for B3, in the data set with MepR WT, the binding result was “no binding”.
